From IntAct's records for PubMed 22505024 come the findings set out here.

The labels stand for the following.
B1: ERBB receptor feedback inhibitor 1 (Homo sapiens), Q9UJM3 (parent)
chain: MSIAGVAAQEIRVPLKTGFLHNGRAMGNMRKTYWSSRSEFKNNFLNIDPITMAYSLNSSAQERLIPLGHASKSAPMNGHCFAENGPSQKSSLPPLLIPPSENLGPHEEDQVVCGFKKLTVNGVCASTPPLTPIKNSPSLFPCAPLCERGSRPLPPLPISEALSLDDTDCEVEFLTSSDTDFLLEDSTLSDFKYDVPGRRSFRGCGQINYAYFDTPAVSAADLSYVSDQNGGVPDPNPPPPQTHRRLRRSHSGPAGSFNKPAIRISNCCIHRASPNSDEDKPEVPPRVPIPPRPVKPDYRRWSAEVTSSTYSDEDRPPKVPPREPLSPSNSRTPSPKSLPSYLNGVMPPTQSFAPDPKYVSSKALQRQNSEGSASKVPCILPIIENGKKVSSTHYYLLPERPPYLDKYEKFFREAEETNGGAQIQPLPADCGISSATEKPDSKTKMDLGGHVKRKHLSYVVSP
partner: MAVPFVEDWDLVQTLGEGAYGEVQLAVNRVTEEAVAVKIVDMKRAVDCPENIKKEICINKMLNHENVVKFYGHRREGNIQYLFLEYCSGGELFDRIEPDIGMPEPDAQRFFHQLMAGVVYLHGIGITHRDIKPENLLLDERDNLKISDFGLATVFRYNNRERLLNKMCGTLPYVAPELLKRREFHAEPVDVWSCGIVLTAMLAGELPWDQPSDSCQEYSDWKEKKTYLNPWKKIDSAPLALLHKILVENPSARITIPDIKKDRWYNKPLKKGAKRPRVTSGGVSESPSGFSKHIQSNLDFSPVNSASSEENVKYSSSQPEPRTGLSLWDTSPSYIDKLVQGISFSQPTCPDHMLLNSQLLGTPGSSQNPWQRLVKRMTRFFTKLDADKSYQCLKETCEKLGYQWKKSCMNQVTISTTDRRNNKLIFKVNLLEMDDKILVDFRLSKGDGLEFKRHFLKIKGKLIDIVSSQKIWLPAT

The variants in the first assay derive from B1. Conditions: with chk1_human CHEK1, O14757.
As for S251A, the “effect of a mutation on the interaction” value is recorded as “decreasing interaction”. On to S249A, for which the “effect of a mutation on the interaction” value is on record as “decreasing interaction”.

In another assay the parent is B1. Conditions: with chk1_human CHEK1, O14757. This is another data set of the same source.
Turning to S302A, the “effect of a mutation on the interaction” value is on record as “decreasing interaction”. For S369A, the “effect of a mutation on the interaction” value is listed as “decreasing interaction”. As for S334A, the “effect of a mutation on the interaction” value is on record as “decreasing interaction”.
